Where “and” joins values, the source holds several entries; their conditions need not be identical. Identical values can stand only once. Entries after “also recorded” stand apart in the source; their conditions may differ.
Columns and labels:
[1] = biological target: T1, carboxylic acid reductase (Nocardia iowensis, UniProt Q6RKB1); assay: 13C NMR study of benzoyl-AMP reduction by purified carboxylic acid reductase; format: biochemical, Nocardia sp. NRRL 5646; conditions: 1.4 mM benzoyl-AMP, 2.0 mM NADPH, 20 min. at 20° C.
T1 construct: isolated and substantially purified from Nocardia sp. strain NRRL 5646; endogenous in cells; host or cells: Nocardia sp; NRRL 5646, benzoate-induced culture; enzyme purified by Mono-Q, Reactive Green 19 agarose and hydroxyapatite chromatography
Method: Using carboxyl-^13 C labeled benzoyl-AMP, synthesized as described in Example 1, the reduction of benzoyl-AMP to benzaldehyde with the substantially purified carboxylic acid reductase from Nocardia sp. NRRL 5646 was investigated with ^13 C NMR spectroscopy (see, FIG. 1). The substantially purified carboxylic acid reductase from Nocardia sp. NRRL 5646 and all other reagents were prepared or obtained in Example 1.
A 10 μl sample (0.05 units) of the substantially purified carboxylic acid reductase was added to initiate the reaction. A control sample was prepared containing everything except the enzyme. After 20 min. incubation at 20° C., the samples were subjected to NMR analysis. For ^13 C NMR spectroscopy, […] D2 O was added as the locking solvent, and […] of dioxane was added as an internal standard (67.4 ppm). NMR spectra were obtained with a Bruker WM 360-MHZ high-field spectrometer equipped with an IBM Aspect-2000 processor.

[2] = biological target: T1, carboxylic acid reductase; assay: Enzymatic reduction of vanillic acid to vanillin by purified carboxylic acid reductase; format: biochemical, Nocardia sp. NRRL 5646
Method: The reaction mixture was incubated at 30° C. with gentle shaking for 24 hours, after which the entire reaction mixture was loaded onto a solid phase extraction cartridge (Chem Elut 1200, 200 ml aqueous solution capacity). After 5 min. of equilibration, the cartridge was washed with 2×100 ml of hexane, then washed again with 2×100 ml of dichloromethane (concentrated to less than 2 ml).
The extract was then transferred to a vial and the solvent was removed with a stream of nitrogen to give about 8 mg of the purified vanillin end product.
Mass spectrometry, ^1 H, and ^13 C NMR data confirmed that this compound was vanillin. The yield was determined to be 96% with UV spectrophotometric assay at 340 nm.

[3] = biological target: T1, carboxylic acid reductase; assay: Rate of carboxylic acid reduction after o-benzylation of vanillic acid (unpublished data); format: biochemical, Nocardia sp. NRRL 5646; conditions: substrate concentration 5 mM
[4] = tested on: CC(C)Cc1ccc([C@@H](C)C(=O)O)cc1; assay: purified protein, by the assay type; conditions: other: purified enzyme; mean of three determinations; pH 7.5; 25.0 °C
[5] = tested on: CC(C)Cc1ccc([C@H](C)C(=O)O)cc1; assay: purified protein, by the assay type; conditions: other: purified enzyme; mean of three determinations; pH 7.5; 25.0 °C
[6] = tested on: NC(=O)C1=CN([C@@H]2O[C@H](COP(=O)(O)OP(=O)(O)OC[C@H]3O[C@@H](n4cnc5c(N)ncnc54)[C@H](OP(=O)(O)O)[C@@H]3O)[C@@H](O)[C@H]2O)C=CC1; assay: purified protein, by the assay type; conditions: other: purified enzyme; mean of three determinations; pH 7.5; 25.0 °C
[7] = tested on: Nc1ncnc2c1ncn2[C@@H]1O[C@H](COP(=O)(O)OP(=O)(O)OP(=O)(O)O)[C@@H](O)[C@H]1O; assay: purified protein, by the assay type; conditions: other: purified enzyme; mean of three determinations; pH 7.5; 25.0 °C
[8] = Stability of the purified enzyme in buffer; format: physicochemical; conditions: 50 mM pH 7.5 Tris-HCl buffer, 10% glycerol, 8 hr at 4° C.
Method: Properties of the carboxylic acid reductase (aryl-aldehyde oxidoreductase).Inclusion of 10% glycerol in all chromatographic buffers was used to stabilize the enzyme. Nevertheless, the purified enzyme in 50 mM pH 7.5 Tris-HCl buffer, containing 10% glycerol, lost nearly […] of its activity in 8 hr at 4° C.

[9] = biological target: carboxylic acid reductase (aryl aldehyde oxidoreductase) (Nocardia iowensis, UniProt Q6RKB1); assay: Standard aryl-aldehyde oxidoreductase assay: specific activity of the purified enzyme; format: biochemical, Nocardia sp. NRRL 5646; set-up: isolated and substantially purified from Nocardia sp. strain NRRL 5646; endogenous in cells; host or cells: Nocardia sp; NRRL 5646, benzoate-induced culture; enzyme purified by Mono-Q, Reactive Green 19 agarose and hydroxyapatite chromatography; conditions: after hydroxyapatite step
Method: Enzyme assay. The standard aryl-aldehyde oxidoreductase assay solution contained 0.15 mM […], 1 mM ATP, and 5 mM sodium benzoate, 10 mM MgCl2 and 0.01 to 0.3 units of enzyme in 50 mM Tris-HCl buffer in a final volume of 0.7 ml. The reference cuvette contained all components except for benzoate. Enzyme reactions were initiated by adding enzyme, and they were monitored by recording the absorption decrease at 340 nm at 25° C. with a Shimadzu 160 spectrophotometer. One unit of the carboxylic acid reductase (aryl-aldehyde oxidoreductase) is defined as the amount of enzyme that catalyzes the reduction of 1 μmol benzoate to benzaldehyde per min. under standard assay conditions.
Protein assay. The concentration of protein was measured by the Bradford protein microassay (Bradford, Anal. Biochem. 72:248-254 (1976)), with bovine serum albumin as the standard.

T1 sequence (Q6RKB1 whole entry): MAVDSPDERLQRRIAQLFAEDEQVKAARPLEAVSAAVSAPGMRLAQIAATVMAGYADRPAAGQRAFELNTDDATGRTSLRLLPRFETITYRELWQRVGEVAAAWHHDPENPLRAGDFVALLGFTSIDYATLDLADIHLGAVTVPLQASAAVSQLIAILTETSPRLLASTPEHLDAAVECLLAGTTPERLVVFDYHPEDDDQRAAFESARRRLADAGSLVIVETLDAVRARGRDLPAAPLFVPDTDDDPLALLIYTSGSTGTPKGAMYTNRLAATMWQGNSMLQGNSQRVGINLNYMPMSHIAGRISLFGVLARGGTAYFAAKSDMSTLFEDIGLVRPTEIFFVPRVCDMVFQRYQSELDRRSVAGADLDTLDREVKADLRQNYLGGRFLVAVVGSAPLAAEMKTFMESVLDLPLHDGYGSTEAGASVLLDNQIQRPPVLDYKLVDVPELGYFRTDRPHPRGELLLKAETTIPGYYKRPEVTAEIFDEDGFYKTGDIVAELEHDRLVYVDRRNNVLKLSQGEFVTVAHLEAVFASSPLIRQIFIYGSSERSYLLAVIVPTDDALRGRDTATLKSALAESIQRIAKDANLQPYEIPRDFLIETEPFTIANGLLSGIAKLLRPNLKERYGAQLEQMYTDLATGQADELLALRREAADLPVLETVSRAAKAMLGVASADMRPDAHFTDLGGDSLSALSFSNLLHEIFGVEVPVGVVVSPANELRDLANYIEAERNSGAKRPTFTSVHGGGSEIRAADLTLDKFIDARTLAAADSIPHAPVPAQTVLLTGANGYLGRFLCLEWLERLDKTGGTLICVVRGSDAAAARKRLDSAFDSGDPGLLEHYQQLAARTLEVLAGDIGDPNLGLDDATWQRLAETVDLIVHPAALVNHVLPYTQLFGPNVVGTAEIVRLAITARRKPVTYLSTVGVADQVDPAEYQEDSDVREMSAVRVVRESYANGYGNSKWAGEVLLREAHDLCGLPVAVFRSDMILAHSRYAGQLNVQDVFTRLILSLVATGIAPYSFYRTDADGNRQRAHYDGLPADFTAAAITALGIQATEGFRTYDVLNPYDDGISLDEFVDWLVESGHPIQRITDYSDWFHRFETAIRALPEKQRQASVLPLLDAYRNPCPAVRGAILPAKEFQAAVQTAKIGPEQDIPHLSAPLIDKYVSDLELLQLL
carboxylic acid reductase (aryl aldehyde oxidoreductase), sequence (Q6RKB1 whole entry): as above

Nc1ncnc2c1ncn2[C@@H]1O[C@H](COP(=O)(O)OC(=O)c2ccccc2)[C@@H](O)[C@H]1O [benzoyl AMP]
reduction of benzoyl-AMP to benzaldehyde [1]: completely reduced; also recorded: quantitatively reduced

COc1cc(C(=O)O)ccc1O [vanillic acid, 4-hydroxy-3-methoxybenzoic acid]
transformation from vanillic acid to vanillin ([2]; with ATP and NADPH, purified enzyme): quantitative
increase in the rate of carboxylic acid reduction as a result of o-benzylation [3]: more than 15 fold

COc1cc(C=O)ccc1O [vanillin, 4-hydroxy-3-methoxy-benzaldehyde]
yield of vanillin ([2]; UV spectrophotometric assay at 340 nm, 30° C., 24 hours): 96%

carboxylic acid reductase (aryl-aldehyde oxidoreductase) (Nocardia iowensis)
Km [4]: 34.5 µM
Km [5]: 155 µM
Km [6]: 29.3 µM and 57.3 ± 12.5 µM
Km [7]: 57.3 µM and 29.3 ± 3.1 µM

B1: Purified carboxylic acid reductase: carboxylic acid reductase (aryl-aldehyde oxidoreductase) isolated and purified from Nocardia sp. strain NRRL 5646 (protein, UniProt Q6RKB1 2-1174, looked up)
Carboxylic acid reductase: AVDSPDERLQRRIAQLFAEDEQVKAARPLEAVSAAVSAPGMRLAQIAATVMAGYADRPAAGQRAFELNTDDATGRTSLRLLPRFETITYRELWQRVGEVAAAWHHDPENPLRAGDFVALLGFTSIDYATLDLADIHLGAVTVPLQASAAVSQLIAILTETSPRLLASTPEHLDAAVECLLAGTTPERLVVFDYHPEDDDQRAAFESARRRLADAGSLVIVETLDAVRARGRDLPAAPLFVPDTDDDPLALLIYTSGSTGTPKGAMYTNRLAATMWQGNSMLQGNSQRVGINLNYMPMSHIAGRISLFGVLARGGTAYFAAKSDMSTLFEDIGLVRPTEIFFVPRVCDMVFQRYQSELDRRSVAGADLDTLDREVKADLRQNYLGGRFLVAVVGSAPLAAEMKTFMESVLDLPLHDGYGSTEAGASVLLDNQIQRPPVLDYKLVDVPELGYFRTDRPHPRGELLLKAETTIPGYYKRPEVTAEIFDEDGFYKTGDIVAELEHDRLVYVDRRNNVLKLSQGEFVTVAHLEAVFASSPLIRQIFIYGSSERSYLLAVIVPTDDALRGRDTATLKSALAESIQRIAKDANLQPYEIPRDFLIETEPFTIANGLLSGIAKLLRPNLKERYGAQLEQMYTDLATGQADELLALRREAADLPVLETVSRAAKAMLGVASADMRPDAHFTDLGGDSLSALSFSNLLHEIFGVEVPVGVVVSPANELRDLANYIEAERNSGAKRPTFTSVHGGGSEIRAADLTLDKFIDARTLAAADSIPHAPVPAQTVLLTGANGYLGRFLCLEWLERLDKTGGTLICVVRGSDAAAARKRLDSAFDSGDPGLLEHYQQLAARTLEVLAGDIGDPNLGLDDATWQRLAETVDLIVHPAALVNHVLPYTQLFGPNVVGTAEIVRLAITARRKPVTYLSTVGVADQVDPAEYQEDSDVREMSAVRVVRESYANGYGNSKWAGEVLLREAHDLCGLPVAVFRSDMILAHSRYAGQLNVQDVFTRLILSLVATGIAPYSFYRTDADGNRQRAHYDGLPADFTAAAITALGIQATEGFRTYDVLNPYDDGISLDEFVDWLVESGHPIQRITDYSDWFHRFETAIRALPEKQRQASVLPLLDAYRNPCPAVRGAILPAKEFQAAVQTAKIGPEQDIPHLSAPLIDKYVSDLELLQLL
loss of activity [8]: ~250%
specific activity [9]: 5.9 units/mg of protein

Source: US6261814A, “Carboxylic acid reductase, and methods of using same” (University of Iowa Research Foundation, priority 1998, dated 2001)
